The chains are these.
B1: CPEB3 Ribozyme (parent)
chain: GGGGGCCACAGCAGAAGCGUUCACGUCGCGGCCCCUGUCAGAUUCUGGUGAAUCUGCGAAUUCUGCUGU

This series covers variants of B1. As to the kind of experiment: self-cleavage, relative activity (ratio to wild type); higher = more cleavage; co-transcriptional.
Turning to C39A A51C, the self-cleavage is 0.654.

Regarding C39A A51G, the self-cleavage worked out at 0.802.

On to U38A A40U, for which the self-cleavage is 0.692.

With U38C G47U, the self-cleavage stood at 0.925.

For the variant U38C G47A, the self-cleavage came to 0.933.

As to U38G A59C, the self-cleavage amounted to 0.232.

Take U38G A59G: the self-cleavage was 0.132.

Regarding G37U G48A, the self-cleavage worked out at 0.388.

As for G37U G48U, the self-cleavage worked out at 0.322.

Consider U38G A52G, for which the self-cleavage worked out at 0.327.

Turning to U38G A52C, the self-cleavage is 0.275.

C39A U55C: the self-cleavage came to 0.736.

Consider C39A U55G, for which the self-cleavage was 0.808.

In the case of G37U G68A, the self-cleavage was 0.438.

Turning to G37U G68C, the self-cleavage is 0.42.

Consider U38A G58U, for which the self-cleavage stood at 0.936.

Regarding U38A G58A, the self-cleavage is 0.848.

In the case of C39A C54A, the self-cleavage was 0.583.

Turning to C39A C54G, the self-cleavage turned out to be 0.427.

For C39A C54U, the self-cleavage came to 0.765.

As to G37U A59U, the self-cleavage was found to be 0.197.

Regarding G37C U46C, the self-cleavage was determined as 0.174.

In the case of U38G G65A, the self-cleavage is 0.257.

As for U38G G65U, the self-cleavage was found to be 0.28.

Turning to U38G U62C, the self-cleavage was determined as 0.261.

Regarding U38A G68C, the self-cleavage was found to be 0.927.

As to U38A G68U, the self-cleavage was found to be 0.939.

In the case of U38C U61C, the self-cleavage was determined as 0.57.

Regarding U38C A60G, the self-cleavage was found to be 0.78.

As to U38C A60C, the self-cleavage was determined as 0.293.

Take U38C U55A: the self-cleavage is 0.733.

In the case of U38C U55C, the self-cleavage stood at 0.556.

As for U38A U44G, the self-cleavage was determined as 0.875.

For U38A U44A, the self-cleavage amounted to 0.854.

On to C39A U49A, for which the self-cleavage stood at 0.902.

Turning to C39A G50A, the self-cleavage stood at 0.912.

Turning to C39A G50C, the self-cleavage is 0.602.

As for C39A G50U, the self-cleavage is 0.847.

As to U38G G68A, the self-cleavage was 0.259.

With G37U C57U, the self-cleavage came out at 0.264.

As to G37U C57A, the self-cleavage amounted to 0.174.

In the case of U38G A60G, the self-cleavage was 0.249.

For the variant U38G A60U, the self-cleavage was determined as 0.331.

U38A C54U: the self-cleavage is 0.911.

On to U38C G41A, for which the self-cleavage was found to be 0.736.

Regarding U38C G41C, the self-cleavage is 0.773.

As to G37C U67C, the self-cleavage is 0.282.

On to U38C C57G, for which the self-cleavage amounted to 0.369.

Turning to G37U C45U, the self-cleavage turned out to be 0.316.

On to G37U C45G, for which the self-cleavage turned out to be 0.286.

As to G37C G48A, the self-cleavage was 0.182.

Take G37C G48U: the self-cleavage was 0.288.

As for U38A U43C, the self-cleavage was 0.9.

For U38A U43G, the self-cleavage was determined as 0.8.

Consider U38C C63U, for which the self-cleavage was determined as 0.876.

As to G37U C54G, the self-cleavage was found to be 0.168.

As to G37U C54A, the self-cleavage was 0.227.

In the case of G37U U61C, the self-cleavage worked out at 0.21.

Turning to G37U U61G, the self-cleavage worked out at 0.152.

Consider G37C G47A, for which the self-cleavage worked out at 0.189.

For the variant G37C G47U, the self-cleavage was 0.209.

Turning to G37U U67A, the self-cleavage stood at 0.293.

With G37U U67C, the self-cleavage stood at 0.317.

For the variant G37U U67G, the self-cleavage turned out to be 0.304.

As to U38A C39U, the self-cleavage amounted to 0.888.

Turning to G37C G58C, the self-cleavage is 0.277.

In the case of G37C G58A, the self-cleavage is 0.242.

For the variant G37C G58U, the self-cleavage was 0.353.

With U38C G56U, the self-cleavage was determined as 0.658.

With U38C G56A, the self-cleavage turned out to be 0.879.

On to U38C G56C, for which the self-cleavage amounted to 0.401.

Take C39A: the self-cleavage is 0.903.

On to G37U U69C, for which the self-cleavage was 0.533.

Regarding U38C C54G, the self-cleavage came to 0.643.

As to U38C C54U, the self-cleavage is 0.948.

Take U38C U49C: the self-cleavage was determined as 0.999.

For U38C U49G, the self-cleavage amounted to 0.916.

Take U38C C45A: the self-cleavage is 0.885.

With U38C C45U, the self-cleavage was 0.922.

Consider U38G A42G, for which the self-cleavage came out at 0.189.

For the variant U38G A42C, the self-cleavage stood at 0.264.

Regarding U38G A42U, the self-cleavage was found to be 0.178.

For the variant U38A U69A, the self-cleavage was determined as 0.98.

As to U38G C45A, the self-cleavage was 0.286.

In the case of U38G C45U, the self-cleavage came to 0.28.

C39A C66U: the self-cleavage amounted to 0.828.

For C39A C66A, the self-cleavage was determined as 0.435.

As for C39A U46G, the self-cleavage was found to be 0.957.

On to C39A U46C, for which the self-cleavage is 0.808.

G37C U55A: the self-cleavage turned out to be 0.25.

With G37C U55G, the self-cleavage was 0.236.

In the case of G37C U55C, the self-cleavage worked out at 0.267.

As for C39A A60G, the self-cleavage came out at 0.606.

Take C39A A60C: the self-cleavage was found to be 0.286.

On to C39A A60U, for which the self-cleavage was 0.24.

As to G37U U55G, the self-cleavage stood at 0.173.

For the variant G37U U55C, the self-cleavage was found to be 0.214.

With U38C G68U, the self-cleavage was 0.997.

On to U38C G68C, for which the self-cleavage was found to be 0.975.

Take U38C G68A: the self-cleavage was 0.992.

As to G37U C39U, the self-cleavage came out at 0.186.

Regarding U38C U62C, the self-cleavage is 0.633.

Regarding U38C U62G, the self-cleavage worked out at 0.717.

As to U38C U46C, the self-cleavage was 0.966.

Consider U38C U46A, for which the self-cleavage amounted to 0.943.

Turning to U38G U43C, the self-cleavage came to 0.161.

U38G U43G: the self-cleavage is 0.213.

On to U38G U43A, for which the self-cleavage is 0.247.

As to G37U A52U, the self-cleavage amounted to 0.317.

Turning to G37U A52G, the self-cleavage worked out at 0.282.

On to U38G U46C, for which the self-cleavage is 0.294.

With U38G U46A, the self-cleavage is 0.233.

Regarding U38G C57U, the self-cleavage was determined as 0.282.

As for U38G C57A, the self-cleavage came out at 0.161.

Consider U38A A42U, for which the self-cleavage was 0.817.

For U38C A52C, the self-cleavage was found to be 0.921.

For C39A A59C, the self-cleavage is 0.386.

Consider U38C A42U, for which the self-cleavage amounted to 0.827.

U38C A42C: the self-cleavage is 0.885.

On to U38C A42G, for which the self-cleavage was 0.938.

Consider C39A G48A, for which the self-cleavage amounted to 0.968.

Turning to U38A U64C, the self-cleavage came to 0.776.

As for G37U C66A, the self-cleavage came to 0.267.

Turning to G37U C66G, the self-cleavage came to 0.201.

G37U U43A: the self-cleavage amounted to 0.209.

On to G37U U43C, for which the self-cleavage was found to be 0.236.

Turning to U38C G65A, the self-cleavage was determined as 0.746.

U38C G65U: the self-cleavage was 0.495.

On to U38C G65C, for which the self-cleavage is 0.519.

As for G37U U44A, the self-cleavage was 0.213.

In the case of G37U U44G, the self-cleavage turned out to be 0.231.

U38G U64A: the self-cleavage came to 0.163.

Turning to U38G U64G, the self-cleavage stood at 0.25.

With U38G U64C, the self-cleavage is 0.235.

For U38A C63A, the self-cleavage was found to be 0.663.

With U38A C63U, the self-cleavage is 0.877.

With U38A C63G, the self-cleavage turned out to be 0.67.

On to G37U G50U, for which the self-cleavage is 0.379.

Regarding G37U U62G, the self-cleavage came to 0.332.

In the case of G37U U62A, the self-cleavage is 0.227.

With C39A G56C, the self-cleavage was determined as 0.904.

Take C39A G56U: the self-cleavage worked out at 0.984.

With C39A G56A, the self-cleavage was 0.898.

Regarding C39A U44A, the self-cleavage was 0.638.

Regarding C39A U44G, the self-cleavage worked out at 0.562.

On to C39A U44C, for which the self-cleavage was found to be 0.432.

With U38G G41C, the self-cleavage came out at 0.226.

In the case of U38A G50C, the self-cleavage was found to be 0.911.

Consider U38A G50U, for which the self-cleavage was 0.894.

For the variant G37U U38A, the self-cleavage came out at 0.321.

G37U U38G: the self-cleavage is 0.254.

Take G37U U38C: the self-cleavage was found to be 0.239.

Turning to U38A G48C, the self-cleavage stood at 0.887.

U38A G48U: the self-cleavage worked out at 0.957.

Turning to U38A G48A, the self-cleavage was determined as 0.938.

With G37U G56A, the self-cleavage was determined as 0.28.

G37U G56C: the self-cleavage stood at 0.206.

For the variant G37U G56U, the self-cleavage came to 0.224.

As to U38A G56A, the self-cleavage was found to be 0.922.

In the case of G37C G68C, the self-cleavage was determined as 0.245.

Regarding G37C G68A, the self-cleavage amounted to 0.304.

Consider G37C G68U, for which the self-cleavage turned out to be 0.245.

Consider U38G G48C, for which the self-cleavage is 0.236.

As to U38G G48U, the self-cleavage worked out at 0.266.

In the case of U38G G56A, the self-cleavage is 0.722.

As for U38G G56U, the self-cleavage was determined as 0.672.

With U38G G56C, the self-cleavage came out at 0.237.
